Experimental data as given in PMC8897147.

Biological target: SV1, splice variant of GHRHR, -Rluc8
Experiment: FRET or BRET

SV1, splice variant of GHRHR, -Rluc8, sequence (Q02643 23-423, change not shown): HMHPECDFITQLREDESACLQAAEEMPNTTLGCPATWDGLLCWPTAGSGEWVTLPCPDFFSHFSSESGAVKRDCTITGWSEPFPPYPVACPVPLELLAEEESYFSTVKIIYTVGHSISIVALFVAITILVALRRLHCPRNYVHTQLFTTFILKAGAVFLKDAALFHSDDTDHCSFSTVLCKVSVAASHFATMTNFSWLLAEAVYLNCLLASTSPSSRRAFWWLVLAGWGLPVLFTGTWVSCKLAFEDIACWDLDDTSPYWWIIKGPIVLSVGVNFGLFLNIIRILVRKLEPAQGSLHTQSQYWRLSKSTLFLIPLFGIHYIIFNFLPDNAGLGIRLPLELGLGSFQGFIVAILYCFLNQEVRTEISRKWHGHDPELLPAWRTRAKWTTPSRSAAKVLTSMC
RAMP2-Ypet (receptor activity-modulating protein 2), sequence (O60895 43-175): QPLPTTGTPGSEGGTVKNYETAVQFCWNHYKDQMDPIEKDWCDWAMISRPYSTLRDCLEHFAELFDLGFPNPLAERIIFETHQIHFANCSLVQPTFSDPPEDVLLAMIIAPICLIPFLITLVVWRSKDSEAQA

Substance | BRET50 (Kd) (intensity ratio of RAMP:receptor)
RAMP1-Ypet (receptor activity-modulating protein 1) (from UniProt O60894 27-148) (natural protein) | 4.4
RAMP2-Ypet (receptor activity-modulating protein 2) (from UniProt O60895 43-175) (natural protein) | 2.36
